According to publication PMC5404835:

Target: C-peptide-mCherry generated from RINS1 (human)
Experiment: western blot of cell lysate (band size); lysates of MIN6 cells expressing RINS1 (lysis buffer 10 mM Tris/Cl pH 7.5, 150 mM NaCl, 0.5 mM EDTA, 0.5% NP-40), NuPAGE 4-12% Bis-Tris gel, anti-mCherry antibody

stoichiometry N: 2
Substance: C-peptide-mCherry generated from RINS1 (domain or fragment)
